According to the supplement of paper PMC6757056:
± gives the standard deviation of the averaged measurements.

B1: library; a variant is named by its letters at N, in order (parent)
chain: GCUGUCACCGAGAAACUGUGAAGUAUAUCUUAAACCUGGGCACUUAAAAGAUAUAUGGAGUUAGUAGUGCAACCUGCUCGGUCUGAUGAGUCCNNNNNNGGACGAAACAGC

Experiments:
[1] = variants of: B1; assay: normalized RNA/DNA level without ligand (relative to sTRSVctl = 100) (log10 (% of sTRSVctl)); HEK293T; ligand: cyclic di-GMP (c-di-GMP-II aptamer); higher = less ribozyme self-cleavage, higher mRNA level; conditions: reporter: mCherry (pCS4076), ligand present: no
How it was run: (§1)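 Library plasmids encoding reporter-linked ribozyme switches (mCherry, or eGFP for some folinic acid experiments) were transfected into HEK293T at 4 µg per 6-well well. Ligand, when used, was added 1 h before transfection. Total RNA was extracted with EDTA 72 h later, then reverse-transcribed, amplified, barcoded and sequenced. RNA level was RNA reads over DNA reads, divided by a spiked-in non-cleaving control (or the top 25 sequences), ×100, log10; only sequences with ≥100 DNA reads were kept.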

[2] = variants of: B1; assay: normalized RNA/DNA level with ligand (relative to sTRSVctl = 100) (log10 (% of sTRSVctl)); HEK293T; ligand: cyclic di-GMP (c-di-GMP-II aptamer); ligand concentration (+) RNA-Seq: 1 mM; higher = less ribozyme self-cleavage, higher mRNA level; conditions: reporter: mCherry (pCS4076), ligand present: yes
How it was run: as §1

Variant	normalized RNA/DNA level without ligand (log10) [1]	normalized RNA/DNA level with ligand (log10) [2]
CUUAAG	1.69 ± 0.05	1.89 ± 0.079
CUUAAC	1.679 ± 0.014	1.8 ± 0.079
CUGGUC	1.68 ± 0.032	1.8 ± 0.14
CUGGUU	1.67 ± 0.025	1.83 ± 0.08
CUGGUG	1.39 ± 0.017	1.58 ± 0.16
CUGGUA	1.38 ± 0.086	1.59 ± 0.076
UUGAGU	1.7248 ± 0.00016	1.83 ± 0.15
UUGAGG	1.79 ± 0.028	1.87 ± 0.14
UUUACG	1.83 ± 0.057	1.91 ± 0.12
UUUACC	1.75 ± 0.028	1.87 ± 0.058
UUUACA	1.73 ± 0.037	1.85 ± 0.1
UUUACU	1.75 ± 0.031	1.88 ± 0.092
GUGGUU	1.617 ± 0.0057	1.78 ± 0.13
CUGAUC	1.6663 ± 0.001	1.76 ± 0.13
GUGCAC	1.729 ± 0.0059	1.83 ± 0.17
GUGCAG	1.86 ± 0.06	1.89 ± 0.13
GUGCAA	1.64 ± 0.046	1.77 ± 0.084
GUGUCA	1.75 ± 0.027	1.85 ± 0.11
GUGUCG	1.685 ± 0.012	1.79 ± 0.11
GUGUCC	1.77 ± 0.045	1.86 ± 0.094
GUGUCU	1.72 ± 0.031	1.84 ± 0.13
AUGUUC	1.681 ± 0.01	1.84 ± 0.1
AUGUUG	1.56 ± 0.036	1.72 ± 0.14

Variant	normalized RNA/DNA level without ligand (log10) [1]	normalized RNA/DNA level with ligand (log10) [2]
AUGUUU	1.56 ± 0.034	1.77 ± 0.15
GUUAAA	1.51 ± 0.079	1.7 ± 0.12
GUUAAC	1.67 ± 0.046	1.8 ± 0.037
UUGUCU	1.8 ± 0.03	1.92 ± 0.086
UUGUCG	1.79 ± 0.032	1.89 ± 0.05
UUGUCA	1.77 ± 0.045	1.9 ± 0.1
UUGUCC	1.8 ± 0.026	1.89 ± 0.098
CUGAGG	1.73 ± 0.031	1.88 ± 0.16
AUGCCU	1.74 ± 0.044	1.87 ± 0.14
AUGCCG	1.7503 ± 0.0015	1.86 ± 0.13
AUGCCC	1.79 ± 0.051	1.82 ± 0.14
AUGGGA	1.4 ± 0.12	1.56 ± 0.074
AUGGGG	1.56 ± 0.12	1.68 ± 0.08
AUGGGC	1.626 ± 0.015	1.79 ± 0.16
GUGUUU	1.72 ± 0.023	1.9 ± 0.092
AUUAAC	1.655 ± 0.015	1.76 ± 0.15
AUUAAU	1.674 ± 0.015	1.8 ± 0.12
AUUAAG	1.55 ± 0.041	1.75 ± 0.14
CUGGCC	1.8041 ± 0.00089	1.87 ± 0.096
CUGGCG	1.74 ± 0.057	1.85 ± 0.092
CUGGCA	1.638 ± 0.015	1.73 ± 0.14
CUGGCU	1.771 ± 0.0077	1.87 ± 0.067
AUGUGG	1.59 ± 0.051	1.72 ± 0.081

Variant	normalized RNA/DNA level without ligand (log10) [1]	normalized RNA/DNA level with ligand (log10) [2]
AUGUGA	1.44 ± 0.082	1.65 ± 0.11
AUGUGC	1.6033 ± 0.00051	1.77 ± 0.14
GUUAGC	1.72 ± 0.02	1.85 ± 0.12
GUUAGU	1.66 ± 0.017	1.8 ± 0.13
CUGGAG	1.604 ± 0.006	1.77 ± 0.099
CUGGAC	1.63 ± 0.018	1.77 ± 0.096
CUGGAU	1.53 ± 0.094	1.73 ± 0.053
UUGAUU	1.698 ± 0.016	1.81 ± 0.083
UUGAUA	1.49 ± 0.02	1.69 ± 0.17
UUGAUC	1.73 ± 0.038	1.85 ± 0.11
GUGUAG	1.7031 ± 0.0011	1.85 ± 0.095
GUGUAU	1.6 ± 0.018	1.78 ± 0.14
GUGUAC	1.58 ± 0.025	1.78 ± 0.089
GUGUAA	1.48 ± 0.027	1.67 ± 0.1
GUUCAC	1.737 ± 0.013	1.87 ± 0.09
GUUCAG	1.77 ± 0.023	1.86 ± 0.12
GUUCAA	1.62 ± 0.059	1.81 ± 0.083
GUUAUC	1.51 ± 0.045	1.74 ± 0.067
GUUAUU	1.679 ± 0.0041	1.83 ± 0.11
GUGGAG	1.61 ± 0.059	1.71 ± 0.092
CUGGGG	1.648 ± 0.0018	1.83 ± 0.19
CUGGGU	1.71 ± 0.033	1.85 ± 0.13
CUGGGC	1.733 ± 0.0023	1.88 ± 0.09

Variant	normalized RNA/DNA level without ligand (log10) [1]	normalized RNA/DNA level with ligand (log10) [2]
CUGGGA	1.55 ± 0.09	1.74 ± 0.093
UUGGUA	1.45 ± 0.084	1.73 ± 0.11
UUGGUU	1.7 ± 0.027	1.84 ± 0.097
UUGGUC	1.77 ± 0.0052	1.86 ± 0.11
UUGGUG	1.6 ± 0.1	1.78 ± 0.11
UUGGCG	1.85 ± 0.022	1.94 ± 0.11
UUGGCA	1.76 ± 0.035	1.83 ± 0.037
UUGGCC	1.81 ± 0.031	1.88 ± 0.097
UUGUUG	1.67 ± 0.053	1.86 ± 0.13
UUGUUA	1.64 ± 0.022	1.81 ± 0.12
UUGUUU	1.78 ± 0.041	1.92 ± 0.085
CUUAGG	1.79 ± 0.072	1.89 ± 0.13
CUUAGU	1.78 ± 0.051	1.88 ± 0.058
CUUAGA	1.61 ± 0.024	1.79 ± 0.12
AUGGCU	1.75 ± 0.031	1.86 ± 0.15
AUGGCC	1.78 ± 0.024	1.9 ± 0.13
AUGGCA	1.61 ± 0.02	1.75 ± 0.046
AUGGCG	1.69 ± 0.039	1.83 ± 0.053
UUGUGA	1.599 ± 0.011	1.79 ± 0.11
UUGUGU	1.716 ± 0.015	1.88 ± 0.11
UUGUGG	1.795 ± 0.0063	1.9 ± 0.1
UUGUGC	1.75 ± 0.027	1.86 ± 0.052
UUUCAG	1.75 ± 0.022	1.86 ± 0.1

Variant	normalized RNA/DNA level without ligand (log10) [1]	normalized RNA/DNA level with ligand (log10) [2]
UUUCAA	1.712 ± 0.0062	1.86 ± 0.092
UUUCAU	1.72 ± 0.035	1.83 ± 0.12
UUUCAC	1.73 ± 0.093	1.84 ± 0.14
GUUACA	1.661 ± 0.0095	1.8 ± 0.11
GUUACC	1.79 ± 0.059	1.9 ± 0.1
GUUACG	1.65 ± 0.075	1.81 ± 0.083
AUGCGC	1.732 ± 0.016	1.86 ± 0.099
AUGCGG	1.74 ± 0.024	1.82 ± 0.098
AUGCGU	1.679 ± 0.011	1.79 ± 0.099
UUUAAA	1.654 ± 0.0051	1.79 ± 0.081
UUUAAG	1.72 ± 0.027	1.85 ± 0.11
AUUAUA	1.58 ± 0.03	1.74 ± 0.095
AUUAUG	1.58 ± 0.022	1.77 ± 0.1
AUUAUU	1.63 ± 0.042	1.79 ± 0.1
CUGUAC	1.67 ± 0.033	1.82 ± 0.096
CUGUAG	1.66 ± 0.051	1.84 ± 0.1
CUGUAA	1.26 ± 0.086	1.51 ± 0.1
AUGUCA	1.59 ± 0.072	1.78 ± 0.066
AUGUCG	1.64 ± 0.035	1.76 ± 0.087
AUGUCU	1.7 ± 0.028	1.84 ± 0.046
AUGUCC	1.74 ± 0.02	1.86 ± 0.15
AUGCUG	1.68 ± 0.028	1.83 ± 0.074
AUGCUA	1.57 ± 0.034	1.77 ± 0.06
